Drawing on patent US20090203140, this text covers activity (% embryos with unpigmented eye clones) and activity (% no tail-like embryos) for 7 sequences.

Assay in all cases: cell_activity
One data set deals with ZFN 12806 golden. Conditions: pair 04.06 (with 12804), 5 ng mRNA.
Another data set deals with ZFN 12775 golden. The following applies: pair 75.76 (with 12776), 7 ng mRNA, golden b1 heterozygous embryos.
A further data set relates to ZFN 13368 notail. Conditions: pair ntl_68 (inferred 13368 with 13370), 5 ng mRNA, ntl b195 het x wildtype cross.
In a further data set the test system is ZFN 12776 golden. The following applies: pair 75.76 (with 12775), 7 ng mRNA, golden b1 heterozygous embryos.
The subject of a further data set is ZFN 13370 notail. The following applies: pair ntl_68 (inferred with 13368), 5 ng mRNA; 16% in pair ntl_78.
A further data set deals with ZFN 12804 golden. Conditions: pair 04.05 (with 12805), 5 ng mRNA; also 32% in pair 04.06.
Another data set deals with ZFN 12805 golden. The following applies: pair 04.05 (with 12804), 5 ng mRNA.

On to “ACCGTCTGGATGAACCACGGCAGGCCCA (double strand) [golden 12806 target]”, for which the activity (% embryos with unpigmented eye clones) in the data set on ZFN 12806 golden came out at 32.

In the data set on ZFN 12775 golden, “GTGCAGCGTGCGGCCTGCTGTCCTCTGC (double strand) [golden 12775 target]” yielded an activity (% embryos with unpigmented eye clones) of 23.

For the sequence “TGTACTCGGTCCTGCTGGATTTTGTGGC (double strand) [no tail 13368 target]”, in the data set with ZFN 13368 notail, the activity (% no tail-like embryos) was found to be 27.

With “ATGCACAGCAGGTTATAGACAGCAGAAC (double strand) [golden 12776 target]”, in the data set with ZFN 12776 golden, the activity (% embryos with unpigmented eye clones) was 23.

On to “GCATTAGGGTCGAGACCGGTGACACTGG (double strand) [no tail 13370 target]”, for which, in the data set on ZFN 13370 notail, the activity (% no tail-like embryos) amounted to 27.

For the sequence “TTGTTGACGTGGGCTCCCCGGTGGATGT (double strand) [golden 12804 target]”, the activity (% embryos with unpigmented eye clones) in the data set on ZFN 12804 golden was found to be 32.

For the sequence “ACCGTCTGGATGAACCACGGCAGGCCCA (double strand) [golden 12805 target]”, the activity (% embryos with unpigmented eye clones) in the data set on ZFN 12805 golden was found to be 32.
